From article PMC4383598, “Role of Cysteine Residues in the Structure, Stability, and Alkane Producing Activity of Cyanobacterial Aldehyde Deformylating Oxygenase” (PLoS ONE, 2015)

B1: Aldehyde deformylating oxygenase from Nostoc punctiforme PCC 73102, C71S mutant (enzyme, UniProt B2J1M1 1-232, looked up)
chain: MQQLTDQSKELDFKSETYKDAYSRINAIVIEGEQEAHENYITLAQLLPESHDELIRLSKMESRHKKGFEASGRNLAVTPDLQFAKEFFSGLHQNFQTAAAEGKVVTCLLIQSLIIECFAIAAYNIYIPVADDFARKITEGVVKEEYSHLNFGEVWLKEHFAESKAELELANRQNLPIVWKMLNQVEGDAHTMAMEKDALVEDFMIQYGEALSNIGFSTRDIMRLSAYGLIGA
notes: Aldehyde deformylating oxygenase of Nostoc punctiforme PCC 73102; codon-optimised synthetic gene; Same construct as m1 with the mutation; source: E. coli BL21(DE3)pLysS (pET-15b-AD variant), purified (Ni-agarose, dialysis)
B2: Aldehyde deformylating oxygenase from Nostoc punctiforme PCC 73102, C71A mutant (enzyme, UniProt B2J1M1 1-232, looked up)
chain: MQQLTDQSKELDFKSETYKDAYSRINAIVIEGEQEAHENYITLAQLLPESHDELIRLSKMESRHKKGFEAAGRNLAVTPDLQFAKEFFSGLHQNFQTAAAEGKVVTCLLIQSLIIECFAIAAYNIYIPVADDFARKITEGVVKEEYSHLNFGEVWLKEHFAESKAELELANRQNLPIVWKMLNQVEGDAHTMAMEKDALVEDFMIQYGEALSNIGFSTRDIMRLSAYGLIGA
notes: as for B1

Biological target: the molecule itself
Assay: SEC; Superdex 200pg (124 mL), 500 uL of protein at 2.5 mg/mL, 0.5 mL/min, 10 mM sodium phosphate pH 7.2, 150 mM NaCl; fraction of dimer against monomer

| Protein | stoichiometry N |
| --- | --- |
| B1 | 2 |
| B2 | 2 |
